Target: CH31 IgG monoclonal antibody
Assay: SPR

| Substance | t1/2 | Kd | koff |
| --- | --- | --- | --- |
| GT6 tetramer (biotinylated eOD-GT6 on streptavidin) (from UniProt P22629 25-183) (complex) | 4.9 min | – | – |
| GT8 tetramer (biotinylated eOD-GT8 on streptavidin) (from UniProt P22629 25-183) (complex) | 44.4 min | – | – |
| eOD-GT6-Avi-3C-His (designed binder) | – | 5.2 µM | > 0.01 s⁻¹ |
| eOD-GT8_AviHis (designed binder) | – | 0.308 µM | > 0.01 s⁻¹ |
